# According to US20220185894A1 (F STAR THERAPEUTICS, published 2022):
# T1: cynomolgus LAG-3 expressed on cells (cynomolgus monkey, UniProt P18627 24-525 (human entry))
# T1 construct: also called cLAG-3; cyno LAG-3
# T1 chain: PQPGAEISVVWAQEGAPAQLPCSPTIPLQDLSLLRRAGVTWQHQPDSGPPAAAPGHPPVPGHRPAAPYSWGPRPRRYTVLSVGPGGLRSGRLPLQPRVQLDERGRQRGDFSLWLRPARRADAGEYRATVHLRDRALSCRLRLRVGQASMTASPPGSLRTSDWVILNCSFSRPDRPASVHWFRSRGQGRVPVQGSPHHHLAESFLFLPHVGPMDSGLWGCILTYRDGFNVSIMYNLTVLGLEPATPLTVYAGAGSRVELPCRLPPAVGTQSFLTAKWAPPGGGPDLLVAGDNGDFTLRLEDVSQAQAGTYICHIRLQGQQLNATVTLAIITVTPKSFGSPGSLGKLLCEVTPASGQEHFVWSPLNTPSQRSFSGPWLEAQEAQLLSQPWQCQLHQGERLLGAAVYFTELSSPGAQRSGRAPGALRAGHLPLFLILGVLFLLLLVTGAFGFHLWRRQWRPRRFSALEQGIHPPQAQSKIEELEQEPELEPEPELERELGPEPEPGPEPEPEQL
# T2: human LAG-3 expressed on cells (human, UniProt P18627 23-525)
# T2 construct: also called hLAG-3; DO11.10 hLAG-3
# T2 sequence: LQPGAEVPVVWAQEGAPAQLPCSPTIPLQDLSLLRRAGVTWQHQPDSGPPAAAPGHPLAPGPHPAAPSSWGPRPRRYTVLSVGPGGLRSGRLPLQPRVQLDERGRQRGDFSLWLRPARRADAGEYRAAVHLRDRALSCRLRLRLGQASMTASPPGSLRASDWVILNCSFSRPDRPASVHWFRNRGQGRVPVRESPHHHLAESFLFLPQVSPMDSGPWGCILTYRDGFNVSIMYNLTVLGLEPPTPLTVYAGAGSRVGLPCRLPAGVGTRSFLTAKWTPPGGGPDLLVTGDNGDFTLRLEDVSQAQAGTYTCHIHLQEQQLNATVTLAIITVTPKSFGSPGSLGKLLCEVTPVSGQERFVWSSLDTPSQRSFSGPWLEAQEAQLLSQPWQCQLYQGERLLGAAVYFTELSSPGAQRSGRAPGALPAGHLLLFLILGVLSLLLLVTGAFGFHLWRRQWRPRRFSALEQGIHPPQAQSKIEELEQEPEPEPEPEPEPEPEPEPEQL
# T3: recombinant Fc-tagged human LAG-3 (R&D Systems, 2319-L3-050) (human, UniProt P18627 23-450)
# T3 construct: Bought protein; also called LAG-3 Fc; human LAG-3-Fc; not shown: Fc tag of the bought fusion protein
# T3 sequence: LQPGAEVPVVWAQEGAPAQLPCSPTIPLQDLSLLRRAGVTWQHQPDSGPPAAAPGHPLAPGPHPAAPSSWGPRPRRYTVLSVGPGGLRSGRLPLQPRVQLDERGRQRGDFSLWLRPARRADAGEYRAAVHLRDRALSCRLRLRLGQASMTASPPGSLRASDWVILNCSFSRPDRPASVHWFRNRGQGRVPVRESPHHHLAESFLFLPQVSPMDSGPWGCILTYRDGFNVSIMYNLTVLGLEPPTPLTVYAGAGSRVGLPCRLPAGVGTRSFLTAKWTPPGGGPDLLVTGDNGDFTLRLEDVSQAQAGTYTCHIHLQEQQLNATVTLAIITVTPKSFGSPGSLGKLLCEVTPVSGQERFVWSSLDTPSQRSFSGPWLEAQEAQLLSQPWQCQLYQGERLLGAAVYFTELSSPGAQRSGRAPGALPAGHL
# Assays:
# [1] = biological target: T4, human PD-L1 Fc (R&D Systems, 156-B7) (human, UniProt Q9NZQ7 19-239); test: SPR, BIAcore T200; mAb2 captured on Protein L, PD-L1 Fc injected
# T4 construct: Bought protein; not shown: Fc tag of the bought fusion protein
# T4 sequence (Q9NZQ7 19-239 limits assumed): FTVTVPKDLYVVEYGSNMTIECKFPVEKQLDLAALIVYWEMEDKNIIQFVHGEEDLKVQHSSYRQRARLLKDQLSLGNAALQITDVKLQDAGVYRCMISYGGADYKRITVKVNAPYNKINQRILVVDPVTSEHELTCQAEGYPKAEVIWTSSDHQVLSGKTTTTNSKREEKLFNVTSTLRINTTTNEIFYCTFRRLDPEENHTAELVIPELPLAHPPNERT
# Procedure: (§1) Protein L (Thermo, 21189) was immobilized on flow cells 1 and 2 of a Series S CM5 chip (GE Healthcare, BR-1005-30) by amine coupling (GE Healthcare, BR-1000-50) to a surface density of 2000 RU by following the manufacturer's instructions for the BIAcore T200 instrument. […] The association time was 3 min and the dissociation time was 6 min. Running buffer was HBS-P (GE Healthcare, BR-1003-68). Both flow cells were regenerated by injecting 10 mM sodium hydroxide (NaOH) at a flow rate of 100 μl/min for 20 seconds. The data were analysed by double referencing against the blank flow cell.
# (§2) The binding kinetics were fit with a 1:1 Langmuir model to generate binding association (kₐ) and dissociation (kd) rates. Equilibrium binding constants (KD) were calculated by dividing the dissociation rate by the association rate for each sample. Data analysis was performed with BiaEvaluation software version 3.2.
# [2] = biological target: T1, cynomolgus LAG-3 expressed on cells; test: flow cytometry on HEK cells expressing cynomolgus LAG-3
# Procedure: (§3) The affinity of the mAb² (all containing the LALA mutation) for cell expressed human or cynomolgus LAG-3 was determined using flow cytometry. HEK cells expressing human or cynomolgus LAG-3 grown in DMEM (Life Technologies, 61965-026) containing 10% FBS (Life Technologies, 10270-1-6), 100 μg/ml Hygromycin B (Melford Laboratories Ltd, Z2475), 15 μg/ml Blasticidin (Melford Laboratories Ltd, B1105) and 1 μg/ml Doxycyclin (Sigma, D9891) were detached from tissue culture flasks using cell dissociation buffer (Life Technologies, 13151-014) and seeded in V-bottom 96-well plates (Costar, 3897) at 2×10⁵ cells/well. The plates were centrifuged at 1500 rpm for 3 min at 4° C. to pellet the cells. A dilution series of the mAb² (or control mAb) were incubated with the cells in a 100 μl volume for 1 h at 4° C. The plates were washed and secondary antibody (Anti-human Fc-488, Jackson ImmunoResearch, 109-546-098) was diluted 1:1000 in PBS and 100 μl was added to the cells for 30 min at 4° C. (plates were kept in the dark). The plates were washed and then cells were resuspended in 100 μl PBS containing 1 μg/ml DAPI (Biotium, 40043). The plates were read using Canto II flow cytometer (BD Bioscience). Dead cells were excluded and the fluorescence in the FITC channel (488 nm/530/30) was measured. The data was fit using log (agonist) vs response in GraphPad Prism Software. The plates were read on a BD FACSCanto II cytometer (BD Biosciences) and the data analysed using FlowJo.
# [3] = biological target: human PD-L1 expressed on cells (human, UniProt Q9NZQ7 19-290); test: cell-based or functional assay
# human PD-L1 expressed on cells, sequence (Q9NZQ7 19-290 limits assumed): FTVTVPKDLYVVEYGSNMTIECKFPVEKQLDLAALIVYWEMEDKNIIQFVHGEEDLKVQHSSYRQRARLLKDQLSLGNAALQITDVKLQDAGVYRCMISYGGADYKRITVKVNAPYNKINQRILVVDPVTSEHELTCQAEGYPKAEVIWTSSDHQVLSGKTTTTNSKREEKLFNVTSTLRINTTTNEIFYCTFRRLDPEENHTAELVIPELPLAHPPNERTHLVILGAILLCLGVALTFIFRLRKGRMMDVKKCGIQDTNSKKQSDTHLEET
# [4] = biological target: T2, human LAG-3 expressed on cells; test: flow cytometry on HEK cells expressing human LAG-3
# Procedure: as §3
# [5] = biological target: T3, recombinant Fc-tagged human LAG-3 (R&D …); test: SPR, BIAcore T200; mAb2 captured on Protein L, human LAG-3 Fc injected
# Procedure: as §1, §2
Kd [1] [nM],koff [1] [s⁻¹],kon [1] [M⁻¹ s⁻¹],EC50 [2] [nM],fold better binding (EC50) than control antibody 25F7 [2] [fold],Maximal IL2 release calculated as % ctrl (84G09 + 25F7) [3] [%],EC50 [4] [nM],Kd [5] [nM],koff [5] [s⁻¹],kon [5] [M⁻¹ s⁻¹],Binder
1.3,0.00022,170000,26.4,≥ 2,59,4.08,0.036,0.0002,5.4e+06,"anti-human LAG-3/PD-L1 mAb2 FS18-7-62/84G09 with LALA mutation (bispecific antibody, human IgG1, kappa, L234A L235A, also called FS18-7-62/84G09LALA; F518-7-62/84G09LALA) heavy: EVQLVESGGGLVQPGRSLRLSCAASGFTFDDYAMHWVRQTPGKGLEWVSGISWKSNIIGYADSVKGRFTISRDNAKNSLYLQMNSLRAEDTALYYCARDITGSGSYGWFDPWGQGTLVTVSSASTKGPSVFPLAPSSKSTSGGTAALGCLVKDYFPEPVTVSWNSGALTSGVHTFPAVLQSSGLYSLSSVVTVPSSSLGTQTYICNVNHKPSNTKVDKKVEPKSCDKTHTCPPCPAPEAAGGPSVFLFPPKPKDTLMISRTPEVTCVVVDVSHEDPEVKFNWYVDGVEVHNAKTKPREEQYNSTYRVVSVLTVLHQDWLNGKEYKCKVSNKALPAPIEKTISKAKGQPREPQVYTLPPSWDEPWGEDVSLTCLVKGFYPSDIAVEWESNGIPEWNYKTTPPVLDSDGSFFLYSKLTVPYDRWVWPDEFSCSVMHEALHNHYTQKSLSLSPG light: DIQMTQSPSSLSASVGDRVTITCRASQSISSYLNWYQQKPGKAPKPLIYVASSLQSGVPSSFSGSGSGTDFTLTISSLQPEDFATYYCQQSYSNPITFGQGTRLEIKRTVAAPSVFIFPPSDEQLKSGTASVVCLLNNFYPREAKVQWKVDNALQSGNSQESVTEQDSKDSTYSLSSTLTLSKADYEKHKVYACEVTHQGLSSPVTKSFNRGEC"
1,0.0001,100000,24.8,≥ 2,64.4,2.53,0.029,0.00014,4.8e+06,"anti-human LAG-3/PD-L1 mAb2 FS18-7-78/84G09 with LALA mutation (bispecific antibody, human IgG1, kappa, L234A L235A, also called FS18-7-78/84G09 LALA; FS18-7-78/84G09LALA) heavy: EVQLVESGGGLVQPGRSLRLSCAASGFTFDDYAMHWVRQTPGKGLEWVSGISWKSNIIGYADSVKGRFTISRDNAKNSLYLQMNSLRAEDTALYYCARDITGSGSYGWFDPWGQGTLVTVSSASTKGPSVFPLAPSSKSTSGGTAALGCLVKDYFPEPVTVSWNSGALTSGVHTFPAVLQSSGLYSLSSVVTVPSSSLGTQTYICNVNHKPSNTKVDKKVEPKSCDKTHTCPPCPAPEAAGGPSVFLFPPKPKDTLMISRTPEVTCVVVDVSHEDPEVKFNWYVDGVEVHNAKTKPREEQYNSTYRVVSVLTVLHQDWLNGKEYKCKVSNKALPAPIEKTISKAKGQPREPQVYTLPPSWDEPWGEDVSLTCLVKGFYPSDIAVEWESNGYKEENYKTTPPVLDSDGSFFLYSKLTVPYDRWVWPDEFSCSVMHEALHNHYTQKSLSLSPG light: DIQMTQSPSSLSASVGDRVTITCRASQSISSYLNWYQQKPGKAPKPLIYVASSLQSGVPSSFSGSGSGTDFTLTISSLQPEDFATYYCQQSYSNPITFGQGTRLEIKRTVAAPSVFIFPPSDEQLKSGTASVVCLLNNFYPREAKVQWKVDNALQSGNSQESVTEQDSKDSTYSLSSTLTLSKADYEKHKVYACEVTHQGLSSPVTKSFNRGEC"
